From article PMC4837482, “The complex binding mode of the peptide hormone H2 relaxin to its receptor RXFP1” (Nature Communications, 2016)
Substitutions are numbered along the chain they refer to.

Columns and labels:
Assay in all cases: cAMP activity assay (pCRE β-galactosidase reporter), transfected HEK293T cells
Format in all cases: cell-based
RXFP1 G41A = target: T1, RXFP1 G41A (Homo sapiens, UniProt Q9HBX9, G63A); conditions: construct G41A, ±s.e.m.
T1 construct: transiently transfected human embryonic kidney (HEK) 293T cells expressing full-length RXFP1 and mutants; expressed in transfected cells; host or cells: HEK293T
T1 sequence (Q9HBX9 23-757 G63A limits assumed): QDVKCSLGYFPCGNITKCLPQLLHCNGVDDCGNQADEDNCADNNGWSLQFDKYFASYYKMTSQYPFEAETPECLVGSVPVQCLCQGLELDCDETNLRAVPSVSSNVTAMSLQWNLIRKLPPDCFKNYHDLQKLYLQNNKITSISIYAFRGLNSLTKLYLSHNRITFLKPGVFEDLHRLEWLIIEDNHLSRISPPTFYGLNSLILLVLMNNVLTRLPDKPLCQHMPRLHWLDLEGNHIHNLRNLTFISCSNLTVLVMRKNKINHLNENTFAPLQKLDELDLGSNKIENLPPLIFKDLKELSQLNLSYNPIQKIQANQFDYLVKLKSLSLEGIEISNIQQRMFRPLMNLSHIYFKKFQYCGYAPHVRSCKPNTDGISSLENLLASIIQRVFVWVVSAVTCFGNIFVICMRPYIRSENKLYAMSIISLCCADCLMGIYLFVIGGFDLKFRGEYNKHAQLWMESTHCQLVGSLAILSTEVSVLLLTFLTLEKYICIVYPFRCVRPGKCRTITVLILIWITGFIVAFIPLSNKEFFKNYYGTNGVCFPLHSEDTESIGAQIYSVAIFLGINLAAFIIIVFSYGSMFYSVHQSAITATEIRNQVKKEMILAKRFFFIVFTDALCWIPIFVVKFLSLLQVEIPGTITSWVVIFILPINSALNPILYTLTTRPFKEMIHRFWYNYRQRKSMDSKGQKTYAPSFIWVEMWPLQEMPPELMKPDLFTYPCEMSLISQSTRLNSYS
Procedure: (§1) Media was aspirated and plates stored frozen at −80 °C overnight. […] H2 relaxin dilutions were prepared in minimal media containing 1% DMSO. Positive and negative control stimulations were achieved by incubation with 5 μM Forskolin and minimal media/1% DMSO, respectively. Plates were developed by 10 min of incubation in 25 μl of lysis buffer 1 (100 mM Na2HPO4, pH 8.0, 0.2 mM MgSO4 0.01 mM MnCl2); a further 10 min of incubation in 100 μl of buffer 2 (100 mM Na2HPO4, pH 8.0, 2 mM MgSO4, 0.1 mM MnCl2, 0.5% Triton X-100, 40 mM β-mercaptoethanol); then to each well 25 μl of the β-galactosidase substrate, chlorophenol red-β-D-galactopyranoside (Roche) was added. All incubation steps were conducted with orbital shaking. Color-change was monitored and readings were taken on a Benchmark Plus Microplate Reader (Bio-Rad) at 570 nm. A minimum of three separate experiments were performed, each of them in triplicate, and data were pooled and presented as percentages of the maximum response induced by 5 μM Forskolin±s.e.m.

RXFP1 G41D42-AA = target: T2, RXFP1 G41D42-AA (Homo sapiens, UniProt Q9HBX9, D64A/G63A)
T2 construct: transiently transfected human embryonic kidney (HEK) 293T cells expressing full-length RXFP1 and mutants; expressed in transfected cells; host or cells: HEK293T
T2 sequence (Q9HBX9 23-757 G63A/D64A limits assumed): T1 sequence (Q9HBX9 23-757 G63A limits assumed) with D42A
Procedure: as §1

RXFP1 W46A = target: T3, RXFP1 W46A (Homo sapiens, UniProt Q9HBX9, W68A); conditions: construct W46A, ±s.e.m.
T3 construct: transiently transfected human embryonic kidney (HEK) 293T cells expressing full-length RXFP1 and mutants; expressed in transfected cells; host or cells: HEK293T
T3 sequence (Q9HBX9 23-757 W68A limits assumed): T1 sequence (Q9HBX9 23-757 G63A limits assumed) with A41G, W46A
Procedure: as §1

[1] = percentage of maximum response to 5 μM Forskolin

H2 relaxin: two-chain 6-kDa peptide hormone structurally related to insulin; recombinant human gene-2 H2 relaxin provided by Corthera
H2 relaxin pEC50 (RXFP1 G41A; cAMP reporter): 11.13±0.1 (3) | H2 relaxin Emax (RXFP1 G41A; [1]): 104.7±1.65 (3) % | loss of H2 relaxin-stimulated cAMP activity (RXFP1 G41D42-AA; G41A/D42A RXFP1 versus wild-type RXFP1): 5,000 fold | H2 relaxin Emax (RXFP1 G41D42-AA; construct G41D42-AA, percentage of maximum response to 5 μM Forskolin, ±s.e.m.): 106.8±46.67 (3) % | H2 relaxin pEC50 (RXFP1 W46A; cAMP reporter): 7.02±0.18 (3) | H2 relaxin Emax (RXFP1 W46A; [1]): 109.6±13.69 (3) %
